Substrate in the series: O=[N+]([O-])c1ccc(O)cc1
Nature of the series: cells, lysate or membranes named. To be noted: other: PNPH; CI 95% confidence interval; pH 7.4; 37.0 °C.

Description: Briefly, liver samples were homogenised in 10 mM Tris-HCl, 250 mM sucrose (pH7.4) and centrifuged for 10 minutes at 10.000×g. Afterwards, CaCl2 to a final concentration of 8 mM was added to the supernatant, and the samples were centrifuged at 25.000×g for 30 minutes. The protein concentrations of the microsomal fraction (pellet) were determined with a commercially available kit (Bio-Rad laboratories) according to the manufacturer's instructions and bovine serum albumin was used as standard. The prepared microsomes were diluted to a final protein concentration of 4 mg/ml and stored at –80°C before analysis. All procedures were done on ice.
Briefly, microsomes were incubated together with the appropriate type of substrate and NADPH at 37°C. The resulting production of resorufin or p-nitrochetecol was measured by HPLC. For studying inhibition, steroids were additionally added to the microsomes. Inhibition studies were performed using a pool of microsomes from three male pigs. […] All steroids were dissolved in methanol. The final concentration of methanol was below 0.1% in the reaction volumes. The same amount of methanol was added to the blank incubations. For the kinetic studies, the activities were determined with substrate concentrations ranging from 0.1 to 4.0µM for EROD and MROD, and from 0.01 to 2mM for PNPH. Kinetic studies were performed under linear conditions. […]

B1: CYP2E1 (Sus scrofa) (protein)
chain: MTALGITVALLVWLVTLLLISIWKHIHSSWKLPPGPFPLPIVGNIFQLDLKNIPKSFTMLAERYGPVFTVYLGSRRIVVLHGYKAVKEVLLHYKNEFSGRGEIPTFQVHKDKGVIFNNGPTWRDTRRFSLTTLRDFGMGKQGNEQRIQREAHFLLEALRKTHGQPFDPTFLIGCAPCNVISDILFRQHFDYNDKTCLRLMSMFNENFYLLSTGWIQLYNNFSGYLRYLPGSHRKLMKNISEIKDYALERVKDHRDSLEPSCPRDFTDTLLMEMEKEKYSAEPIYTLDNIAVTVADMFFAGTETTSTTLRYGLLILMKYPEVEEKLHEEIDRVIGPNRIPAIKDRLVMPYLDAVVHEIQRFIDLIPSNLPHEATRDTDFRDYIIPKGTVVIPTLDSVLYDSQEFPEPEKFKPEHFLNENGKFKYSDHFKAFSAGKRVCVGEGLARMELFLFMAAILQHFNLKSLVDPKDIDLSPIAIGFAKIPPHYKLCVIPRSQV
As for B1, the Km is given as 0.33 (0.214–0.452) µM.

(Values after article PMC3131678.)
